Reference: patent US20240141027A1 (BIOARCTIC, published 2024)

B1: mAb158-scLc-8D3-Ig.7 (bispecific antibody, human IgG1, kappa)
heavy: not shown
chain: DIVMTQAPLSLPVSLGDQASISCRSSQSIVHSNGNTYLEWYLQKPGQSPKLLIYKVSNRFSGVPDRFSGSGSGTDFTLKISRVEAEDLGIYYCFQGSHVPPTFGGGTKLEIKRADAAPTVSIFPPSSEQLTSGGASVVCFLNNFYPKDINVKWKIDGSERQNGVLNSWTDQDSKDSTYSMSSTLTLTKDEYERHNSYTCEATHKTSTSPIVKSFNRNECGGGGSGGGGSEVQLVESGGGLVQPGNSLTLSCVASGFTFSNYGMHWIRQAPKKGLEWIAMIYYDSSKMNYADTVKGRFTISRDNSKNTLYLEMNSLRSEDTAMYYCAVPTSHYVVDVWGQGVSVTVSSGGGGSGGGGSGGGGSDIQMTQSPASLSASLEEIVTITCQASQDIGNWLAWYQQKPGKSPQLLIYGATSLADGVPSRFSGSRSGTQFSLKISRVQVEDIGIYYCLQAYNTPWTFGGGTKLELKRGGGGSGGGGSDIVMTQAPLSLPVSLGDQASISCRSSQSIVHSNGNTYLEWYLQKPGQSPKLLIYKVSNRFSGVPDRFSGSGSGTDFTLKISRVEAEDLGIYYCFQGSHVPPTFGGGTKLEIKRADAAPTVSIFPPSSEQLTSGGASVVCFLNNFYPKDINVKWKIDGSERQNGVLNSWTDQDSKDSTYSMSSTLTLTKDEYERHNSYTCEATHKTSTSPIVKSFNRNEC
notes: Format [LC-L1-scBM-L2-LC]
B2: mAb158-scLc-8D3-Ig.8 (bispecific antibody, human IgG1, kappa)
heavy: not shown
chain: DIVMTQAPLSLPVSLGDQASISCRSSQSIVHSNGNTYLEWYLQKPGQSPKLLIYKVSNRFSGVPDRFSGSGSGTDFTLKISRVEAEDLGIYYCFQGSHVPPTFGGGTKLEIKRADAAPTVSIFPPSSEQLTSGGASVVCFLNNFYPKDINVKWKIDGSERQNGVLNSWTDQDSKDSTYSMSSTLTLTKDEYERHNSYTCEATHKTSTSPIVKSFNRNECGGGGSGGGGSGGGGSEVQLVESGGGLVQPGNSLTLSCVASGFTFSNYGMHWIRQAPKKGLEWIAMIYYDSSKMNYADTVKGRFTISRDNSKNTLYLEMNSLRSEDTAMYYCAVPTSHYVVDVWGQGVSVTVSSGGGGSGGGGSGGGGSDIQMTQSPASLSASLEEIVTITCQASQDIGNWLAWYQQKPGKSPQLLIYGATSLADGVPSRFSGSRSGTQFSLKISRVQVEDIGIYYCLQAYNTPWTFGGGTKLELKRGGGGSGGGGSGGGGSDIVMTQAPLSLPVSLGDQASISCRSSQSIVHSNGNTYLEWYLQKPGQSPKLLIYKVSNRFSGVPDRFSGSGSGTDFTLKISRVEAEDLGIYYCFQGSHVPPTFGGGTKLEIKRADAAPTVSIFPPSSEQLTSGGASVVCFLNNFYPKDINVKWKIDGSERQNGVLNSWTDQDSKDSTYSMSSTLTLTKDEYERHNSYTCEATHKTSTSPIVKSFNRNEC
notes: Format [LC-L1-scBM-L2-LC]
B3: mAb158-scLc-8D3-Ig.9 (bispecific antibody, human IgG1, kappa)
heavy: not shown
chain: DIVMTQAPLSLPVSLGDQASISCRSSQSIVHSNGNTYLEWYLQKPGQSPKLLIYKVSNRFSGVPDRFSGSGSGTDFTLKISRVEAEDLGIYYCFQGSHVPPTFGGGTKLEIKRADAAPTVSIFPPSSEQLTSGGASVVCFLNNFYPKDINVKWKIDGSERQNGVLNSWTDQDSKDSTYSMSSTLTLTKDEYERHNSYTCEATHKTSTSPIVKSFNRNECGGGGSGGGGSGGGGSGGGGSEVQLVESGGGLVQPGNSLTLSCVASGFTFSNYGMHWIRQAPKKGLEWIAMIYYDSSKMNYADTVKGRFTISRDNSKNTLYLEMNSLRSEDTAMYYCAVPTSHYVVDVWGQGVSVTVSSGGGGSGGGGSGGGGSDIQMTQSPASLSASLEEIVTITCQASQDIGNWLAWYQQKPGKSPQLLIYGATSLADGVPSRFSGSRSGTQFSLKISRVQVEDIGIYYCLQAYNTPWTFGGGTKLELKRGGGGSGGGGSGGGGSGGGGSDIVMTQAPLSLPVSLGDQASISCRSSQSIVHSNGNTYLEWYLQKPGQSPKLLIYKVSNRFSGVPDRFSGSGSGTDFTLKISRVEAEDLGIYYCFQGSHVPPTFGGGTKLEIKRADAAPTVSIFPPSSEQLTSGGASVVCFLNNFYPKDINVKWKIDGSERQNGVLNSWTDQDSKDSTYSMSSTLTLTKDEYERHNSYTCEATHKTSTSPIVKSFNRNEC
notes: Format [LC-L1-scBM-L2-LC]
B4: mAb158-scLc-8D3-Ig.10 (bispecific antibody, human IgG1, kappa)
heavy: not shown
chain: DIVMTQAPLSLPVSLGDQASISCRSSQSIVHSNGNTYLEWYLQKPGQSPKLLIYKVSNRFSGVPDRFSGSGSGTDFTLKISRVEAEDLGIYYCFQGSHVPPTFGGGTKLEIKRADAAPTVSIFPPSSEQLTSGGASVVCFLNNFYPKDINVKWKIDGSERQNGVLNSWTDQDSKDSTYSMSSTLTLTKDEYERHNSYTCEATHKTSTSPIVKSFNRNECGGGGSGGGGSGGGGSGGGGSGGGGSEVQLVESGGGLVQPGNSLTLSCVASGFTFSNYGMHWIRQAPKKGLEWIAMIYYDSSKMNYADTVKGRFTISRDNSKNTLYLEMNSLRSEDTAMYYCAVPTSHYVVDVWGQGVSVTVSSGGGGSGGGGSGGGGSDIQMTQSPASLSASLEEIVTITCQASQDIGNWLAWYQQKPGKSPQLLIYGATSLADGVPSRFSGSRSGTQFSLKISRVQVEDIGIYYCLQAYNTPWTFGGGTKLELKRGGGGSGGGGSDIVMTQAPLSLPVSLGDQASISCRSSQSIVHSNGNTYLEWYLQKPGQSPKLLIYKVSNRFSGVPDRFSGSGSGTDFTLKISRVEAEDLGIYYCFQGSHVPPTFGGGTKLEIKRADAAPTVSIFPPSSEQLTSGGASVVCFLNNFYPKDINVKWKIDGSERQNGVLNSWTDQDSKDSTYSMSSTLTLTKDEYERHNSYTCEATHKTSTSPIVKSFNRNEC
notes: Format [LC-L1-scBM-L2-LC]
B5: mAb158-scLc-8D3-Ig.11 (bispecific antibody, human IgG1, kappa)
heavy: not shown
chain: DIVMTQAPLSLPVSLGDQASISCRSSQSIVHSNGNTYLEWYLQKPGQSPKLLIYKVSNRFSGVPDRFSGSGSGTDFTLKISRVEAEDLGIYYCFQGSHVPPTFGGGTKLEIKRADAAPTVSIFPPSSEQLTSGGASVVCFLNNFYPKDINVKWKIDGSERQNGVLNSWTDQDSKDSTYSMSSTLTLTKDEYERHNSYTCEATHKTSTSPIVKSFNRNECGGGGSGGGGSGGGGSGGGGSGGGGSEVQLVESGGGLVQPGNSLTLSCVASGFTFSNYGMHWIRQAPKKGLEWIAMIYYDSSKMNYADTVKGRFTISRDNSKNTLYLEMNSLRSEDTAMYYCAVPTSHYVVDVWGQGVSVTVSSGGGGSGGGGSGGGGSDIQMTQSPASLSASLEEIVTITCQASQDIGNWLAWYQQKPGKSPQLLIYGATSLADGVPSRFSGSRSGTQFSLKISRVQVEDIGIYYCLQAYNTPWTFGGGTKLELKRGGGGSGGGGSGGGGSDIVMTQAPLSLPVSLGDQASISCRSSQSIVHSNGNTYLEWYLQKPGQSPKLLIYKVSNRFSGVPDRFSGSGSGTDFTLKISRVEAEDLGIYYCFQGSHVPPTFGGGTKLEIKRADAAPTVSIFPPSSEQLTSGGASVVCFLNNFYPKDINVKWKIDGSERQNGVLNSWTDQDSKDSTYSMSSTLTLTKDEYERHNSYTCEATHKTSTSPIVKSFNRNEC
notes: Format [LC-L1-scBM-L2-LC]
B6: mAb158-scLc-8D3-Ig.12 (bispecific antibody, human IgG1, kappa)
heavy: not shown
chain: DIVMTQAPLSLPVSLGDQASISCRSSQSIVHSNGNTYLEWYLQKPGQSPKLLIYKVSNRFSGVPDRFSGSGSGTDFTLKISRVEAEDLGIYYCFQGSHVPPTFGGGTKLEIKRADAAPTVSIFPPSSEQLTSGGASVVCFLNNFYPKDINVKWKIDGSERQNGVLNSWTDQDSKDSTYSMSSTLTLTKDEYERHNSYTCEATHKTSTSPIVKSFNRNECGGGGSGGGGSGGGGSGGGGSGGGGSEVQLVESGGGLVQPGNSLTLSCVASGFTFSNYGMHWIRQAPKKGLEWIAMIYYDSSKMNYADTVKGRFTISRDNSKNTLYLEMNSLRSEDTAMYYCAVPTSHYVVDVWGQGVSVTVSSGGGGSGGGGSGGGGSDIQMTQSPASLSASLEEIVTITCQASQDIGNWLAWYQQKPGKSPQLLIYGATSLADGVPSRFSGSRSGTQFSLKISRVQVEDIGIYYCLQAYNTPWTFGGGTKLELKRGGGGSGGGGSGGGGSGGGGSDIVMTQAPLSLPVSLGDQASISCRSSQSIVHSNGNTYLEWYLQKPGQSPKLLIYKVSNRFSGVPDRFSGSGSGTDFTLKISRVEAEDLGIYYCFQGSHVPPTFGGGTKLEIKRADAAPTVSIFPPSSEQLTSGGASVVCFLNNFYPKDINVKWKIDGSERQNGVLNSWTDQDSKDSTYSMSSTLTLTKDEYERHNSYTCEATHKTSTSPIVKSFNRNEC
notes: Format [LC-L1-scBM-L2-LC]; also called mAb158-scLc-Ig.12
B7: mAb158-scLc-8D3-Ig.14 (bispecific antibody, human IgG1, kappa)
heavy: not shown
chain: DIVMTQAPLSLPVSLGDQASISCRSSQSIVHSNGNTYLEWYLQKPGQSPKLLIYKVSNRFSGVPDRFSGSGSGTDFTLKISRVEAEDLGIYYCFQGSHVPPTFGGGTKLEIKRADAAPTVSIFPPSSEQLTSGGASVVCFLNNFYPKDINVKWKIDGSERQNGVLNSWTDQDSKDSTYSMSSTLTLTKDEYERHNSYTCEATHKTSTSPIVKSFNRNECGGGGSGGGGSGGGGSGGGGSGGGGSDIQMTQSPASLSASLEEIVTITCQASQDIGNWLAWYQQKPGKSPQLLIYGATSLADGVPSRFSGSRSGTQFSLKISRVQVEDIGIYYCLQAYNTPWTFGGGTKLELKRGGGGSGGGGSGGGGSEVQLVESGGGLVQPGNSLTLSCVASGFTFSNYGMHWIRQAPKKGLEWIAMIYYDSSKMNYADTVKGRFTISRDNSKNTLYLEMNSLRSEDTAMYYCAVPTSHYVVDVWGQGVSVTVSSGGGGSGGGGSGGGGSDIVMTQAPLSLPVSLGDQASISCRSSQSIVHSNGNTYLEWYLQKPGQSPKLLIYKVSNRFSGVPDRFSGSGSGTDFTLKISRVEAEDLGIYYCFQGSHVPPTFGGGTKLEIKRADAAPTVSIFPPSSEQLTSGGASVVCFLNNFYPKDINVKWKIDGSERQNGVLNSWTDQDSKDSTYSMSSTLTLTKDEYERHNSYTCEATHKTSTSPIVKSFNRNEC
notes: Format [LC-L1-scBM-L2-LC]; also called mAb158-scLc-Ig.14
B8: mAb158-scLc-15G11-1-Ig.1 (bispecific antibody, human IgG1, kappa)
heavy: not shown
chain: DIVMTQAPLSLPVSLGDQASISCRSSQSIVHSNGNTYLEWYLQKPGQSPKLLIYKVSNRFSGVPDRFSGSGSGTDFTLKISRVEAEDLGIYYCFQGSHVPPTFGGGTKLEIKRTVAAPSVFIFPPSDEQLKSGTASVVCLLNNFYPREAKVQWKVDNALQSGNSQESVTEQDSKDSTYSLSSTLTLSKADYEKHKVYACEVTHQGLSSPVTKSFNRGECGGGGSGGGGSGGGGSEVQLVQSGAEVKKPGASVKVSCKASGYTFTSYWMHWVRQAPGQRLEWIGEINPTNGRTNYIEKFKSRATLTVDKSASTAYMELSSLRSEDTAVYYCARGTRAYHYWGQGTMVTVSSGGGGSGGGGSGGGGSDIQMTQSPSSLSASVGDRVTITCRASDNLYSNLAWYQQKPGKSPKLLVYDATNLADGVPSRFSGSGSGTDYTLTISSLQPEDFATYYCQHFWGTPLTFGQGTKVEIKGGGGSGGGGSGGGGSDIVMTQAPLSLPVSLGDQASISCRSSQSIVHSNGNTYLEWYLQKPGQSPKLLIYKVSNRFSGVPDRFSGSGSGTDFTLKISRVEAEDLGIYYCFQGSHVPPTFGGGTKLEIKRTVAAPSVFIFPPSDEQLKSGTASVVCLLNNFYPREAKVQWKVDNALQSGNSQESVTEQDSKDSTYSLSSTLTLSKADYEKHKVYACEVTHQGLSSPVTKSFNRGEC
notes: Format [LC-L1-scBM-L2-LC]

The binders below were run against T1, recombinant Aβ1-42 (assay: indirect ELISA, plates coated with recombinant Aβ1-42).
T1 construct: Coated at 0.5 µg/ml on ELISA plates; also called Amyloid Beta (Aβ1-42)
T1 sequence (peptide, as listed by the source): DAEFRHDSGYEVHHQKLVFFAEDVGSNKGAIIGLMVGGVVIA

Binder | binding result
B1 | binds
B2 | binds
B3 | binds
B4 | binds
B5 | binds
B6 | binds
B7 | binds
B8 | binds

Each binder was assayed against T2, recombinant murine transferrin receptor 1 (mTfR1), extracellular domain fused to a His-tag (murine, UniProt Q62351 89-763) (assay: BLI (Octet), mTfR1 captured on holo-transferrin sensors, analyte 50 nM).
T2 construct: Position of the His-tag (N or C) unknown; also called recombinant mTfR1; murine TfR1; not shown: His-tag
T2 sequence (Q62351 89-763): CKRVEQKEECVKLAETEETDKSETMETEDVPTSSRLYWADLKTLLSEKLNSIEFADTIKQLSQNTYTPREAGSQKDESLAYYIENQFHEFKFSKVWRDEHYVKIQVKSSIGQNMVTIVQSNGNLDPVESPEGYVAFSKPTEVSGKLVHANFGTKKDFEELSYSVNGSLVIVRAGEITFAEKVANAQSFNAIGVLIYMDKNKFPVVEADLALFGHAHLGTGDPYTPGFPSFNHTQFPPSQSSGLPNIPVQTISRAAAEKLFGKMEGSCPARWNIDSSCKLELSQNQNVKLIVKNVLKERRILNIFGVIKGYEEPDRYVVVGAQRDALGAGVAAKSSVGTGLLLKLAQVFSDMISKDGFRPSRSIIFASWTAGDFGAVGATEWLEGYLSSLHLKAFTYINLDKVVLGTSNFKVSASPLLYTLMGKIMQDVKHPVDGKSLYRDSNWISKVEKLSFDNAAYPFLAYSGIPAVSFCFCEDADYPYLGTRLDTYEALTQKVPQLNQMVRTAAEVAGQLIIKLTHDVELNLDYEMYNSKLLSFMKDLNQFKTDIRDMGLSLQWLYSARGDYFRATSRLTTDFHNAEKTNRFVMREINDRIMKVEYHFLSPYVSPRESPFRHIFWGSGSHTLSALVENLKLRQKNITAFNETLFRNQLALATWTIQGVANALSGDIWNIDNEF

Binder | binding result
B1 | binds
B2 | binds
B3 | binds
B4 | binds
B5 | binds
B6 | binds
B7 | binds
